What was measured:
[1] = target: FLAGemGFP-tagged eRF3a -C PAM2 (C-terminal PAM2 motif of eRF3a)
[2] = target: FLAGemGFP-tagged eRF3a PAM2 (overlapping N- and C-terminal PAM2 motifs of eukaryotic release factor 3a)
[3] = target: FLAGemGFP-tagged eRF3a -N PAM2 (N-terminal PAM2 motif of eRF3a)
[4] = target: FLAGemGFP-tagged PAIP2 PAM2 (PAM2 motif of PABP-interacting protein 2)
[5] = target: FLAGemGFP-tagged PAIP2 PAM2 (PAM2 motif of PABP-interacting protein 2); remark: listed apart in the source
[6] = target: MS2V5-eIF4G 84-295 (eIF4G deletion mutant that only contains the interaction site for PABPC1) (UniProt Q04637)
UniProt Q04637, sequence (Q04637 84-295, stated change not applied): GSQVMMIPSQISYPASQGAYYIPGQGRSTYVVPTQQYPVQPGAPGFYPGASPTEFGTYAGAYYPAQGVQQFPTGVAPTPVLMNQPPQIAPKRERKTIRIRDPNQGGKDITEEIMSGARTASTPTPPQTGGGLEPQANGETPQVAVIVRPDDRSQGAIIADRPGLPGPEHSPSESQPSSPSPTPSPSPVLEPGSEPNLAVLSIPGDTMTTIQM

cytoplasmic poly(A)-binding protein (PABPC1) (from UniProt P11940 1-636) (natural protein)
reporter mRNA level (FLAG-TPI-4MS2-SMG5, Northern blot, HeLa) upon tethering the MS2V5-tagged C-terminal eRF3a PAM2 motif (Fig. 3b) [1]: 5 fold | reporter mRNA level (FLAG-TPI-4MS2-SMG5, Northern blot, HeLa) upon tethering the MS2V5-tagged overlapping eRF3a PAM2 motif, relative to MS2V5-GST (Fig. 3b) [2]: 5 fold | reporter mRNA level (FLAG-TPI-4MS2-SMG5, Northern blot, HeLa) upon tethering the MS2V5-tagged N-terminal eRF3a PAM2 motif (Fig. 3b) [3]: 5 fold | reporter mRNA level (TPI-4MS2 reporter with the SMG5 3' UTR, Northern blot, HeLa) upon tethering MS2V5-PAIP2 PAM2, relative to MS2V5-SYNZIP 1 (Fig. 2c) [4]: 4 fold | reporter mRNA level (beta-globin 4MS2/4PP7 double tethering reporter, Northern blot, HeLa) upon tethering MS2V5-PAIP2 PAM2 upstream of PP7-tethered BTZ, relative to GST upstream of BTZ (Fig. 5d) [5]: 8 fold | reporter mRNA level (beta-globin 4MS2/4PP7 double tethering reporter, Northern blot, HeLa) upon tethering MS2V5-PAIP2 PAM2 upstream of PP7-tethered RNPS1, relative to GST upstream of RNPS1 (Fig. 5c) [5]: 6 fold | reporter mRNA level (TPI-4MS2 reporter with the SMG5 3' UTR, Northern blot, HeLa) upon tethering MS2V5-eIF4G 84-295, relative to MS2V5-GST [6]: 5 fold
